Measurements from publication PMC3240604.

Biological target: purified wild-type N1 (C-terminal His tag) (vaccinia virus) (UniProt P17361)
Assay: SEC-MALS

purified wild-type N1 (C-terminal His tag) (from UniProt P17361) (natural protein)
stoichiometry N: 2
